Measured values reported in patent US7897371B2, “Activation of mutated RAC-PK” (Novartis AG, priority 1995, dated 2011).
“And” between values parts separate entries of the source, which are not always exact repeats. Equal entries are not always repeated. Where two headings read alike, the source gives them in different places. No end group written: not given here.

Experiments:
[1] = system: RAC-PK; experiment: RAC-PK activity immunoprecipitated from Swiss 3T3 cells (MBP substrate); format: cell-based; conditions: for Increase in RAC-PK activity: Swiss 3T3 cells, 1 μM okadaic acid, 0.1 mM vanadate, insulin or 10% FCS
[2] = biological target: RAC-PKα (Homo sapiens, UniProt P31749)
[3] = system: GSK3β; format: cell-based, human
[4] = system: RAC-PKα; format: cell-based, human
[5] = biological target: T1, p70 S6 kinase (Rattus norvegicus, UniProt P67999); conditions: cited from earlier work; for Km: read-out: Km for phosphorylation by p70 S6 kinase
T1 construct: from tissue; host or cells: rat liver

[6] = system: MAPKAP kinase-1; conditions: cited from earlier work
[7] = system: C[C@H](NC(=O)[C@H](Cc1ccccc1)NC(=O)[C@H](CO)NC(=O)[C@H](CO)NC(=O)[C@@H](NC(=O)[C@H](CCCNC(=N)N)NC(=O)[C@@H]1CCCN1C(=O)[C@@H](N)CCCNC(=N)N)[C@@H](C)O)C(=O)O; experiment: purified protein, by the assay type; conditions: other: phosphorylation by RAC-PKα; pH 7.5; 30.0 °C
[8] = system: C[C@@H](O)[C@H](NC(=O)[C@H](CCCNC(=N)N)NC(=O)[C@@H]1CCCN1C(=O)[C@@H](N)CCCNC(=N)N)C(=O)N[C@@H](CC(N)=O)C(=O)N[C@@H](CO)C(=O)N[C@@H](Cc1ccccc1)C(=O)O; experiment: purified protein, by the assay type; conditions: other: phosphorylation by RAC-PKα; pH 7.5; 30.0 °C
[9] = system: C[C@@H](O)[C@H](NC(=O)[C@H](CCCNC(=N)N)NC(=O)[C@@H]1CCCN1C(=O)[C@@H](N)CCCNC(=N)N)C(=O)N[C@@H](CO)C(=O)N[C@@H](CO)C(=O)N[C@@H](CCCCN)C(=O)O; experiment: purified protein, by the assay type; conditions: other: phosphorylation by RAC-PKα; pH 7.5; 30.0 °C
[10] = system: N=C(N)NCCC[C@H](NC(=O)[C@@H]1CCCN1C(=O)[C@@H](N)CCCNC(=N)N)C(=O)NCC(=O)N[C@@H](CO)C(=O)N[C@@H](CO)C(=O)N[C@@H](Cc1ccccc1)C(=O)O; experiment: purified protein, by the assay type; conditions: other: phosphorylation by RAC-PKα; pH 7.5; 30.0 °C
[11] = system: C[C@H](NC(=O)[C@H](Cc1ccccc1)NC(=O)[C@H](CO)NC(=O)[C@H](CO)NC(=O)[C@@H](NC(=O)[C@H](CCCNC(=N)N)NC(=O)[C@H](C)NC(=O)[C@H](CCCNC(=N)N)NC(=O)CN)[C@@H](C)O)C(=O)O; experiment: purified protein, by the assay type; conditions: other: phosphorylation by RAC-PKα; pH 7.5; 30.0 °C
[12] = system: C[C@@H](O)[C@H](NC(=O)[C@H](CCCNC(=N)N)NC(=O)[C@@H]1CCCN1C(=O)[C@@H](N)CCCNC(=N)N)C(=O)NCC(=O)N[C@@H](CO)C(=O)N[C@@H](Cc1ccccc1)C(=O)O; experiment: purified protein, by the assay type; conditions: other: phosphorylation by RAC-PKα; pH 7.5; 30.0 °C
[13] = system: CC(C)[C@H](NC(=O)[C@H](CCCNC(=N)N)NC(=O)[C@@H]1CCCN1C(=O)[C@@H](N)CCCNC(=N)N)C(=O)N[C@@H](CO)C(=O)N[C@@H](CO)C(=O)N[C@@H](Cc1ccccc1)C(=O)O; experiment: purified protein, by the assay type; conditions: other: phosphorylation by RAC-PKα; pH 7.5; 30.0 °C
[14] = system: C[C@H](NC(=O)CNC(=O)[C@H](CCCNC(=N)N)NC(=O)[C@@H]1CCCN1C(=O)[C@@H](N)CCCNC(=N)N)C(=O)N[C@@H](CO)C(=O)N[C@@H](Cc1ccccc1)C(=O)O; experiment: purified protein, by the assay type; conditions: other: phosphorylation by RAC-PKα; pH 7.5; 30.0 °C
[15] = system: C[C@H](NC(=O)[C@H](C)NC(=O)[C@H](CCCNC(=N)N)NC(=O)[C@@H]1CCCN1C(=O)[C@@H](N)CCCNC(=N)N)C(=O)N[C@@H](CO)C(=O)N[C@@H](Cc1ccccc1)C(=O)O; experiment: purified protein, by the assay type; conditions: other: phosphorylation by RAC-PKα; pH 7.5; 30.0 °C
[16] = system: C[C@H](NC(=O)[C@H](CO)NC(=O)[C@H](CO)NC(=O)[C@@H](NC(=O)[C@H](CCCNC(=N)N)NC(=O)[C@@H]1CCCN1C(=O)[C@@H](N)CCCNC(=N)N)[C@@H](C)O)C(=O)O; experiment: purified protein, by the assay type; conditions: other: phosphorylation by RAC-PKα; pH 7.5; 30.0 °C
[17] = system: CC(C)[C@H](NC(=O)[C@H](CO)NC(=O)[C@H](CO)NC(=O)[C@@H](NC(=O)[C@H](CCCNC(=N)N)NC(=O)[C@@H]1CCCN1C(=O)[C@@H](N)CCCNC(=N)N)[C@@H](C)O)C(=O)O; experiment: purified protein, by the assay type; conditions: other: phosphorylation by RAC-PKα; pH 7.5; 30.0 °C
[18] = system: C[C@@H](O)[C@H](NC(=O)[C@H](CCCNC(=N)N)NC(=O)[C@@H]1CCCN1C(=O)[C@H](CCCNC(=N)N)NC(=O)CN)C(=O)N[C@@H](CO)C(=O)N[C@@H](CO)C(=O)N[C@@H](Cc1ccccc1)C(=O)O; experiment: purified protein, by the assay type; conditions: other: phosphorylation by RAC-PKα; pH 7.5; 30.0 °C
[19] = system: CC(C)[C@H](NC(=O)[C@@H](NC(=O)[C@H](CCCNC(=N)N)NC(=O)[C@@H]1CCCN1C(=O)[C@@H](N)CCCNC(=N)N)[C@@H](C)O)C(=O)N[C@@H](CO)C(=O)N[C@@H](Cc1ccccc1)C(=O)O; experiment: purified protein, by the assay type; conditions: other: phosphorylation by RAC-PKα; pH 7.5; 30.0 °C
[20] = system: C[C@H](NC(=O)[C@H](CCCNC(=N)N)NC(=O)[C@@H]1CCCN1C(=O)[C@@H](N)CCCNC(=N)N)C(=O)NCC(=O)N[C@@H](CO)C(=O)N[C@@H](Cc1ccccc1)C(=O)O; experiment: purified protein, by the assay type; conditions: other: phosphorylation by RAC-PKα; pH 7.5; 30.0 °C
[21] = system: C[C@H](NC(=O)[C@H](C)NC(=O)[C@H](CCCNC(=N)N)NC(=O)[C@@H]1CCCN1C(=O)[C@@H](N)CCCNC(=N)N)C(=O)N[C@H](C(=O)N[C@@H](Cc1ccccc1)C(=O)O)[C@@H](C)O; experiment: purified protein, by the assay type; conditions: pH 7.5; 30.0 °C
[22] = system: CC(C)C[C@H](NC(=O)[C@H](CO)NC(=O)[C@H](CO)NC(=O)[C@@H](NC(=O)[C@H](CCCNC(=N)N)NC(=O)[C@@H]1CCCN1C(=O)[C@@H](N)CCCNC(=N)N)[C@@H](C)O)C(=O)O; experiment: purified protein, by the assay type; conditions: other: phosphorylation by RAC-PKα; pH 7.5; 30.0 °C
[23] = system: RAC-PKα
[24] = system: GSK3; format: cell-based
[25] = values marked *: data reported previously

T1 sequence (P67999 24-525): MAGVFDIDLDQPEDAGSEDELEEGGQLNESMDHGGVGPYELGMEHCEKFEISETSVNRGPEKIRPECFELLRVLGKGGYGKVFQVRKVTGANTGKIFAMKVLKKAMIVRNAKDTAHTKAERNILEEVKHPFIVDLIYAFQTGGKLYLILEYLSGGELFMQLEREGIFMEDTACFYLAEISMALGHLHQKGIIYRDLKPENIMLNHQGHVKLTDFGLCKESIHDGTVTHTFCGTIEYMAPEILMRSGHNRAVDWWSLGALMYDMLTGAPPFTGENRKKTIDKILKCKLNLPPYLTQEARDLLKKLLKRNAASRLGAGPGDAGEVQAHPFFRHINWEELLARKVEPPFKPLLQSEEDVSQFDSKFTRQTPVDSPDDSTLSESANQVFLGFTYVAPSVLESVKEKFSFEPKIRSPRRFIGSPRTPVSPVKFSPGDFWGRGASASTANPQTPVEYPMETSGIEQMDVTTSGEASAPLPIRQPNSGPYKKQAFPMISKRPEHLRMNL
RAC-PKα (Homo sapiens, UniProt P31749), sequence (P31749 whole entry): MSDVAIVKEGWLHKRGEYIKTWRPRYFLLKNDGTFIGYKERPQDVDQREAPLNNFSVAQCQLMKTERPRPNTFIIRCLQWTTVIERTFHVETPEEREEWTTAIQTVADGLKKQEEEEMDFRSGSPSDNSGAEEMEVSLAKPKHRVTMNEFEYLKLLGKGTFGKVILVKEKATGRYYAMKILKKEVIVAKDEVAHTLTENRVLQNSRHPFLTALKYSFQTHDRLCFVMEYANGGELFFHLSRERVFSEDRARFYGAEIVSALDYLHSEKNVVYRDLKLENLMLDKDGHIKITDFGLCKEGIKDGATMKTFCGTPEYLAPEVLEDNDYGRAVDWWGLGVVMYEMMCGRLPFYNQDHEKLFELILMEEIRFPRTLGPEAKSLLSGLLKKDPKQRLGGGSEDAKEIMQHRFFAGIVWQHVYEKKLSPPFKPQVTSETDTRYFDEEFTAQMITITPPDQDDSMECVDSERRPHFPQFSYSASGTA
GSK3β, sequence (P49841 whole entry): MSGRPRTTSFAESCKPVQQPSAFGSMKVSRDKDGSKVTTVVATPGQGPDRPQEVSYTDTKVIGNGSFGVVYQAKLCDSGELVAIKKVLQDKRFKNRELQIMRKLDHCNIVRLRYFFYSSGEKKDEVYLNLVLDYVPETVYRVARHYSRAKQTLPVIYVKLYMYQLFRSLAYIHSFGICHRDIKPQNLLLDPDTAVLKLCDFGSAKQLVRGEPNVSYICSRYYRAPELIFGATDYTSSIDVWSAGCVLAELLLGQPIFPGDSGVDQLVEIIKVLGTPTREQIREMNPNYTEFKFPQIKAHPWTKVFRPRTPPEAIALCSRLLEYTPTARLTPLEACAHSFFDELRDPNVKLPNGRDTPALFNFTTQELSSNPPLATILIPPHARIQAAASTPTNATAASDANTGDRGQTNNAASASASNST

C=C1[C@@H](O)[C@@H]2O[C@]3(CC[C@H](/C=C/[C@@H](C)[C@@H]4CC(C)=C[C@@]5(O[C@H](C[C@@](C)(O)C(=O)O)CC[C@H]5O)O4)O3)CC[C@H]2O[C@@H]1[C@@H](O)C[C@H](C)[C@H]1O[C@@]2(CCCCO2)CC[C@H]1C [okadaic acid]
Activation of RAC-PK ([1]; Swiss 3T3, simultaneous 1 μM okadaic acid and 10% serum): 5 fold | Increase in RAC-PK activity [1]: 3 fold

[O]=[V]([O-])([O-])[O-] [vanadate]
Increase in RAC-PK activity [1]: 11 fold

GRPRTSSFAEG
Km ([2]; phosphorylation by RAC-PKα): 4 µM

HA-KD-RAC-PKα: kinase dead mutant, Lys179 changed to Ala
Increase in GSK3 activity on PP2A treatment [3]: ~12%

IGF-1
Activation of transfected RAC-PKα [4]: 46 fold and 38 fold | Half time for activation of transfected RAC-PKα [4]: 1 min

KKRNKTLSVA [peptide substrate with Lys at position n-3]
Km [5]: 34 µM | p70 S6 kinase Vmax (U/mg) [5, 25]: 760* U/mg | Phosphorylation by RAC-PKα [2]: does not phosphorylate | Km ([6]; read-out: Km for phosphorylation by MAPKAP-K1): 17 µM | MAPKAP kinase-1 Vmax (U/mg) [6, 25]: 840* U/mg

KKRNRTLSVA
Km [5]: 1.5 µM

KPRTSSF [KPRTSSF]
Km ([2]; phosphorylation by RAC-PKα): > 500 µM

RAC-PKα (Homo sapiens)
Km [7]: 8 µM | Vmax [7]: 305 U/mg | Km [8]: 30 µM | Vmax [8]: 300 U/mg | Km [9]: 80 µM | Vmax [9]: 308 U/mg | Km [10]: 60 µM | Vmax [10]: 163 U/mg | Km [11]: 10 µM | Vmax [11]: 230 U/mg | Km [12]: 25 µM | Vmax [12]: 233 U/mg | Km [13]: 25 µM | Vmax [13]: 273 U/mg | Km [14]: 105 µM | Vmax [14]: 160 U/mg | Km [15]: 25 µM | Vmax [15]: 215 U/mg | Km [16]: 250 µM | Vmax [16]: 265 U/mg | Km [17]: 21 µM | Vmax [17]: 300 U/mg | Km [18]: 8 µM | Vmax [18]: 385 U/mg | Km [19]: 30 µM | Vmax [19]: 365 U/mg | Km [20]: 49 µM | Vmax [20]: 114 U/mg | Km [21]: 25 µM | Vmax [21]: 230 U/mg | Km [22]: 8 µM | Vmax [22]: 278 U/mg

RFRGGSF
Km [2]: 105 µM | V (0.1 mM) [2]: 55 | Vmax (U/mg) [2]: 345 U/mg

RPKTSSF [RPKTSSF]
Km ([2]; phosphorylation by RAC-PKα): > 500 µM

RPRASSF
Km [2]: 12 µM | V (0.1 mM) [2]: 89 | Vmax (U/mg) [2]: 230 U/mg

RPRNSSF [RPRNSSF]
Km ([2]; phosphorylation by RAC-PKα): > 500 µM

RPRTASF
Km [2]: 20 µM | V (0.1 mM) [2]: 83 | Vmax (U/mg) [2]: 213 U/mg

RPRTSS [RPRTSS]
Km ([2]; phosphorylation by RAC-PKα): > 500 µM

RPRTSSE [RPRTSSE]
Km ([2]; phosphorylation by RAC-PKα): > 500 µM

RPRTSSF [RPRTSSF]
Km ([2]; phosphorylation by RAC-PKα): 5 µM

RPRTSTF [RPRTSTF]
Km ([2]; phosphorylation by RAC-PKα): 30 µM

insulin: insulin from Novo-Nordisk
Half-time (t0.5) of activation of RAC-PK [23]: 1 min | Activation of transfected RAC-PKα [4]: 20 fold | Half time for activation of transfected RAC-PKα [4]: 1 min | Increase in RAC-PK activity [1]: 4.5 fold | Increase in 32P-labelling of GSK3-α and GSK3-β [24]: 60-100% | Inhibition of GSK3 [24]: 40-50%

B1: MBP: myelin basic protein, kinase assay substrate (protein, UniProt P02687 1-169, looked up)
Myelin basic protein: AAQKRPSQRSKYLASASTMDHARHGFLPRHRDTGILDSLGRFFGSDRGAPKRGSGKDGHHAARTTHYGSLPQKAQGHRPQDENPVVHFFKNIVTPRTPPPSQGKGRGLSLSRFSWGAEGQKPGFGYGGRASDYKSAHKGLKGHDAQGTLSKIFKLGGRDSRSGSPMARR
Km [2]: 5 µM | Vmax (U/mg) [2]: 25 U/mg
